For experiment [1], the target named is cynomolgus monkey PCSK9, V5-6xHis tagged (cynomolgus monkey). Kind of experiment: BIAcore SPR, antibody amine-coupled to CM5 chip, PCSK9 as analyte, pH 7.4. Background: SPR reads the build-up and loss of mass on a sensor chip optically.
Experiment [2] has the same target. In words: KinExA solution equilibrium.
The target is the same in experiment [3]. Kind of experiment: BIAcore solution equilibrium binding assay, free PCSK9 measured on immobilized 21B12.

The text below walks through data of patent publication US20150004174A1.

B1: 16F12 human IgG4 (antibody, V domains shown)
VH: QVHLVESGGGVVQPGRSLRLSCAASGFTFNSFGMHWVRQAPGKGLEWVALIWSDGSDEYYADSVKGRFTISRDNSKNTLYLQMNSLRAEDTAVYYCARAIAALYYYYGMDVWGQGTTVTVSS
VL: QSVLTQPPSVSAAPGQKVTISCSGSSSNIGNNFVSWYQQLPGTAPKLLIYDYNKRPSGIPDRFSGSKSGTSATLGITGLQTGDEADYYCGTWDSSLSAYVFGTGTRVTVLQ
Regarding B1, the values for the Kd in experiment [1] and in experiment [2] were 0.87 nM and 0.016 nM, respectively.

B2: 21B12 human IgG4 (from hybridoma) (antibody, V domains shown)
VH: QVQLVQSGAEVKKPGASVKVSCKASGYTLTSYGISWVRQAPGQGLEWMGWVSFYNGNTNYAQKLQGRGTMTTDPSTSTAYMELRSLRSDDTAVYYCARGYGMDVWGQGTTVTVSS
VL: QSALTQPASVSGSPGQSITISCTGTSSDVGGYNSVSWYQQHPGKAPKLMIYEVSNRPSGVSNRFSGSKSGNTASLTISGLQAEDEADYYCNSYTSTSMVFGGGTKLTVLQ
In the case of B2, the Kd (usually the free concentration of one partner at which half of the binding sites on the other are occupied at equilibrium, for simple one-to-one binding) in experiment [1] is 0.36 nM; in experiment [3], 0.011 nM.
